Measurements as given in patent publication US20230270894A1 (Regeneron, published 2023).

T1: human LAG3 (lymphocyte activation gene-3 protein, CD223), expressed on cells (human, UniProt P18627 23-525)
T1 sequence: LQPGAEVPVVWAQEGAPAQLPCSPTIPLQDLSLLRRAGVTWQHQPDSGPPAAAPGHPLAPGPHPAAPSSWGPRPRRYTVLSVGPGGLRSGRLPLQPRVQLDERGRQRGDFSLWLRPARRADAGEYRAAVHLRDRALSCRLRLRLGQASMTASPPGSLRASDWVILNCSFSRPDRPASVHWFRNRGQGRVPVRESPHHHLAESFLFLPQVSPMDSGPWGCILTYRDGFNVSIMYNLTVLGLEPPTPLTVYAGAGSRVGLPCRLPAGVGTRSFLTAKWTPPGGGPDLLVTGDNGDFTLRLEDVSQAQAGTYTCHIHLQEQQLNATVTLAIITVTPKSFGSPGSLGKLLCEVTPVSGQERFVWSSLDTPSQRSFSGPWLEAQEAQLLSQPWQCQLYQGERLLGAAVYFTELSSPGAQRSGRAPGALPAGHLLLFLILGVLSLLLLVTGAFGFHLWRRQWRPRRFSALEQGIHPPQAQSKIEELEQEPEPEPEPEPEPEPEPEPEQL

B1: 89Zr-DFO-mAb1 (anti-LAG3 antibody H4sH15482P conjugated with p-SCN-Bn-DFO and radiolabeled with 89Zr) (antibody, V domains shown)
VH: QVQLVESGGGVVQPGRSLRLSCVASGFTFSSYGMHWVRQAPGKGLEWVAIIWYDGSNKYYADSVKGRFTISRDNSKNTQYLQMNSLRAEDTAVYYCASVATSGDFDYYGMDVWGQGTTVTVSS
VL: EIVLTQSPATLSLSPGERTTLSCRASQRISTYLAWYQQKPGQAPRLLIYDASKRATGIPARFSGSGSGTGFTLTISSLEPEDFAVYYCQQRSNWPLTFGGGTKVEIK

Assays:
[1] = biological target: human LAG3 (lymphocyte activation gene-3 protein, CD223), expressed on cells (human) (UniProt P18627); assay: cell-based or functional assay
[2] = biological target: T1, human LAG3 (lymphocyte activation …); assay: cell-based or functional assay

Molecule	ex vivo biodistribution, tumor uptake (AVERAGE % ID/G) in MC38/ova/LAG3 tumors of NCr nude mice, 6 days post-dosing [1] [% ID/g]	Tumor-to-blood ratio (average), Raji/hPBMC tumors, day 6, protein dose 0.03 mg/kg [2] [ratio]	Tumor-to-blood ratio (average), Raji/hPBMC tumors, day 6, protein dose 0.1 mg/kg [2] [ratio]	Tumor-to-blood ratio (average), Raji/hPBMC tumors, day 6, protein dose 0.3 mg/kg [2] [ratio]	Tumor-to-blood ratio (average), Raji/hPBMC tumors, day 6, protein dose 5 mg/kg [2] [ratio]
89Zr-DFO-conjugated isotype control antibody	7.8				
B1		9.71	5.44	3.46	1.1
